Measured values taken from a protein production outcome set (Wang et al. 2014).

Assay: label from the status in PepcDB records
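Further: failed if final PepcDB status was selected cloned or expressed and not failed if soluble or beyond.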

Sequence | protein production
MIYEPAEDSELLLEAALRELKPDDEVIEVGAGSGFVAERLKGKCKCILTTDISPFAAMELRRKGLDVVMTDIAKGIRKKFSLVLFNPPYVELEDELRRGDWLDVAIDGGKKGVKVIKKFLDSLDEIMAERGRAILIASSQNEPDVFDLIDERGFRYEIVGERGLFFEKLFAIKIWKE | failed
MIQEIIAFLGRRGEFFYISVFMLLMFFIFLISWLIEPRRLINGVLFTIFFISVFAWITVMINKSTSRGLQRAYNLLLLIVFFGIILILVFAWLFLFWNAYFVWKYESHTLPNLLTLFSGFIALIFSVIFILGPGRYLPHWLSALLASIPAIAIYLGLVLYNFLVNLLLYQIYPRHYKQDYLIVLGAGLINGDQVSKLLAARINRAIQFSNRQYQKGRKRPIIIMSGGQGPDEKVPEALAMAKFAQHRGVSPDHILIEDQSKNTYQNMLFSKQLATNDFGGPNFKATFFSNNYHIFRAALLAKEVGLKANGVGAFTRLYYLPNAIIREFAGVFVMHKRRHFVIMGVIVLFFILQAILAAAGIVKFNVI | failed
MQNELQKYDDTINIAFFGLDRRQKTDISRSDSIMILTMDPTHKKLKLSSIMRDTYVNVDGHGMTKITHAYAYGGPQLAIKTINENFNLNIKDYVTVDFYGLEKIIDKLNGVEVDVQPDEVNYLNSYIDEVSKYEKVTPNHVSSAGKQLLDGRQAVAYSRIRYTAGGDFQRTERQRTVLMAVFNKMKAQGKSNMLSMMDELLPYAETDLGSLDIAKYGAKFLSSNIDSIDQERFPVDGYCSGITVDNVWYLKTDLGVTSDQMKKYIFEDVKPTPKASLVNIPAKLEHHHHHH | not failed
YETIIIHRHQRPDPDAIGSQVGLAELLRASFPEKNIYQVGGPVEGLEFLAEMDVITDDVYRGALVIVTDTANAPRISDARFSLGDQLIKIDHHPNDEPYGDLVWVNTNASSCSEIIVDFWQQHLAELTMTDNAARLLYAGIVGDTGRFLYPSTSAHTLAVAAQLRTFNFNAADLNRELDQMP | not failed
MRRVLMVNFGVLLLFCFGVLSNSFGQDNGGDSDINSTTAVYIVTLRQASSLHLFQQEAEEVKRVRDQSKHGDTSKFTRPKLQPRNISRSRYWRSRRSAIAQAHDSLLRNALKGEKYIKLYSFHYLINGFAVFVSSQQAETLSRRREVANIVLDFSVRTATTYTPQFMGLPKGAWVKEGGYETAGEGIVIGFIDTGIDPTHPSFNGTDTSQRQYPIPNHFSGVCEVTPDFPSGSCNRKLVGARHFAQSAITRGIFNSSEDYASPFDGDGHGTHTASIAAGNHGVSAVVSGHNFGSASGIAPRAHISVYKALYKSFGGFAADVVAAIDQAAQDGVDILSLSITPNRRPPGVATFFNPLDMAMLSAVKAGIFVVQAAGNTGPSPKSMSSFSPWIFTVGAASHDRDYSNSIVLGNNVSIPGVGLALRTDEGKKYTMISALDALKNKSSVVDKDMYVGECQDYGSFDKDVIRGNLLICSYSIRFVLGLSTIKQALAVAKNLSAKGVVFYMDPYVLGFQINPTPMDMPGIIIPSAEDSKVLLKYYNSSLVRDGTTKEIVRFGAVAAIAGGQNANFSNRAPKIMYYSARGPDPQDSLFNDADILKPNLVAPGNSIWGAWSSAATESTEFEGESFAMMSGTSMAAPHVAGVAALVKQKFRKFSPSAIASALSTTSVLFDNKGEAIMAQRAYANPDQTISPATPFDMGNGFVNATAALDPGLIFDTSFEDYMSFLCGINGSAPVVFNYTGTNCLRNNATISGSDLNLPSITVSKLNNTRTVQRLMTNIAGNETYTVSLITPFDVLINVSPTQFSIASGETKLLSVILTAKRNSSISSFGGIKLLGNAGHIVRIPVSVTVKIASKQ | failed
MKQKNAYNRLTNHYDDVLTGRKWWSWLYMHCLWKTDDNIIAGSVLDMIPGNFEGRILDVPVGTAIFTYDKYRRMPQAEIVGLDYSQEMLDIAAMRFSAEQITNVSLRQGDVGSLPFPDAAFDLVLSMNGFHVFPDKDRAFAETFRVLRGGGLFCGCFYVKGERKPADWFVRKFLDKKGLFRPPHYTREEAIEKLRSLYGDNVEIQDARSLLVFKCTKPRLEHHHHHH | not failed
MTFLQRWQGLADNKICAFAWFVIRRFSEERVPQAAASMTFTTLLALVPVLTVMVAVASIFPVFDRWSDSFVSFVNQTIVPQGADMVFDYIDAFRDQANRLTAIGSVMLVVTSLMLIRTIDNAFNRIWRVNTQRPWMMQFLVYWALLTFGPLSLGVGISFMVGSVQDSVLSSGAQQWADALKTAARLAFMTLLLWGLYRFVPNRFVPARQAFVGALITAFCLETARFLFTWYMGNFDGYRSIYGAFAAVPFFLLWLNLLWTLVLGGAVLTSSLSYWQGEAFRRGFDSRGRFDDVLKILLLLDAAQKEGRTLSVQEFRRHINMGYDELGELLEKLARYGYIYSGRQGWVLKTGADSIELSELFKLFVYRPLPVERDHVNQAVDAVMTPCLQTLNMTLAEFDAQAKKQQQS | failed
MSLIVVTGGAGFIGSHVVDKLSESNEIVVIDNLSSGNEEFVNEAARLVKADLAADDIKDYLKGAEEVWHIAANPDVRIGAENPDEIYRNNVLATYRLLEAMRKAGVSRIVFTSTSTVYGEAKVIPTPEDYPTHPISLYGASKLACEALIESYCHTFDMQAWIYRFANVIGRRSTHGVIYDFIMKLKRNPEELEILGNGEQNKSYIYISDCVDAMLFGLRGDERVNIFNIGSEDQIKVKRIAEIVCEELGLSPRFRFTGGDRGWKGDVPVMLLSIEKLKRLGWKPRYNSEEAVRMAVRDLVEDLDEEGHHHHHH | not failed
KITRLTTYRLPPRWMFLKVETDEGVTGWGEPVIEGRARTVEAAVHELSDYLIGQDPSRINDLWQTMYRAGFYRGGPILMSAIAGIDQALWDIKGKVLGVPVYELLGGLVRDKMRTYSWVGGDRPADVIAGMKALQAGGFDHFKLNGCEEMGIIDTSRAVDAAVARVAEIRSAFGNTVEFGLDFHGRVSAPMAKVLIKELEPYRPLFIEEPVLAEQAETYARLAAHTHLPIAAGERMFSRFDFKRVLEAGGVSILQPDLSHAGGITECVKIAAMAEAYDVALAPHCPLGPIALAACLHVDFVSWNATLQEQSMGIHYNKGAELLDYVRNKADFALEGGYIRPPRLPGLGVDIDEALVIERSKEAPDWRNPVWRHADGSVAEW | not failed
MKKKMITTIIAMLVIVVMLLPTKLGPVIDKYNPFYKTKEYYTVVNTIGQHVGDEWYEYEFIAFDERGKEQKIKKTVKHMLKRDEMLKVYAKGRYGESIEEIEAVNIPINAKSKLLSMRLEHHHHHH | not failed
LFSDASGEQRLQKIIGQIKKDGSGKDYDCIIGLSGGVDSSYLAVKVKDLGLRPLVVHVDAGWNSELAVSNIEKIVKYCGFDLHTHVINWEEIRDLQLAYMKAAVANQDVPQDHAFFASMYHFAVKNNIKYILSGGNLATEAVFPDTWHG | failed
HPQYIVFCDFDETYFPHTIDEQKQQDIYELEDYLEQKSKDGELIIGWVTGSSIESILDKMGRGKFRYFPHFIASDLGTEITYFSEHNFGQQDNKWNSRINEGFSKEKVEKLVKQLHENHNILLNPQTQLGKSRYKHNFYYQEQDEINDKKNLLAIEKICEEYGVSVNINRCNPLAGDPEDSYDVDFIPIGTGKNEIVTFMLEKYNLNTERAIAFGDSGNDVRMLQTVGNGYLLKNATQEAKNLHNLITDSEYSKGITNTLKKLIGFMRR | failed
MRLALFDLDNTLLGGDSDHAWGDYLYQRGILDAATYKSRNDEFYQDYLAGTLNMTDYLNFTLEILGNTDMAQLQEWHREFMRDCIEPIMLPKALELIAKHREAGDKLVVITATNRFVTAPIVARLGIETLLATECEMVDGRYTGRTTGVPCFREGKVTRLNQWLEDNAFSLEDSYFYSDSMNDLPLLEQVANPVAVDPDARLRAEAEQRGWPVITLRS | failed
MSLYKRKSKLIGLLLPDMSNPFFTLIARGVEDVALAHGYQVLIGNSDNDIKKAQGYLATFVSHNCTGMISTAFNENIIENTLTDHHIPFVFIDRINNEHNGISTNHFKGGQLQAEVVRKGKGKNVLIVHENLLIDAFHQRVQGIKYILDQQRIDYKMLEATLLDNDKKFIDLIKELSIDSIICSNDLLAINVLGIVQRYHFKVPAEIQIIGYDNIPFSEMTYPQITTIDQSAYHLGEIAVSQLLGLNTDNLTNNHKQLALTVKHRGSTREGHHHHHH | not failed
MSLKFENTGLENQTVELSRLDDIMERLGFVRAAQWDYERVTYDRKYVVKEGTYYLRVQGYAIEGNVDSRYALIKLLTPIMGKHYYPHGVEYGDDEHFPSSLVSQCQNVLAQVKSELEKIKEEGHHHHHH | not failed
MLFKTIFYQKLQKKVTTLFNLETERVIREIENLNKNNPKVIFQAPEGLKLKVEKEIEKIKQYFKQKNINIEIYLWGNTCFGACDLIDNHVKNLNVDLIIHYGHEKLSYANPEIKTLFIPAYHIFNKDEEEKILNDIKNFIEKHKSGGKKVAIATTIQYKKLLKDFNPSIILGCRGEVKEGDVILFVGTGRFHPLMIAYKYQKEVFIYNPLSKCFDKISEEEINKFIKKRILAISKLLLNKPKKVGVVLSTKKGQCRKRVFDEIIKLLEENDVNYLPILVDNISPDILFYDVDCYIIVACPRIVLDDYILYKKPIYTPEEFKLFLKNSFKYKFDEIKEDDFLEHHHHHH | not failed
MEYETILKLFSLVYIIIMMTIDFWIFGLILRREYVRVKGLLIILSIVLMMGLESLALAQLNVLLFISGMLLVLIPLFISFLIKDHSINVNRNWKYGLLLSSVIVFDELAMGYLYGNYFTPLPNPLLTAINNPAYGAMMLGDAIFFLYILRRRSIMEFAITTFAISMAFMPSLYLMDRMLEFIMSILTSLFMIVNIVLLYLTEMRMLTFQGQLVAISLSLFNLLMMLGLTFFASLSNLYFLTLSMIASMVWYFFLIFYNVPAKKISPKPFLFLVLVNLTELAMGFGESVLGFNLTNSLFVNTMNCEMMIGSHMMRSPFNNPFWWLFPINPLTMITMTIMKYNLLGKLVMVPFMTIMTTTMAPFYVIMMGAEMSYLVYERFKKVKTRYLKAWTLGILTGIPIFVVLIPYYTNYYIFGMSGMIFPVTLAPFVISLVVIALFSTLFGRGVYCNLVCMSAHMWSNVFYEQFSAKKNSKFWDYLRWIFLVPLIIAFYLFVMMGLGKIKLPIDPLDFYGMFTLNYIWWFFYFLTPIFGIYSCARQGWCGFGTFNGIFNKVLFKIRAKDVNTCKECVSKECDTSCPVKIPISNDILKKGYSNRISCIVCARCVDACDNVEIVNVVTILKNRESKSF | failed
MKKYNVDWNYWVVRFLFVMALIVGYLLITNYQHFVHSVSGLLGILSPFITGFVIAYLLSGSQKKIEGLLERVPLPVVKKAKHGLSVLLLYLIILFIFVLTLNYIVPLLISNLVDLANSLPTFYDHMVQFVMSLEDKGILKTAAIEKYLNSVLKDLSPERFLNQWTQALFSLGTLTKNVSSFFLNAFLTLIISIYALVFKQSILTFVEKAAHKLLSEKVYKQTQTWLNTTNKIFYKFISCQFLDACIIGVSSTILLSILNVKFAVTLGILLGICNMIPYFGSIFASIVAGVITLFTGGVTQAITVLLVLLILQQIDGNIIGPRIMGDALNVNPILIIVSITIGGAYFGVLGMFLAVPVAAIIKIIVSEWLNESKENDKIVDSIES | failed
MKIRKLTNEEIKGACAFAVNIYNIAIRGCFRTLDCHRYFDEYMDADRLTDEERTGALVVFGAFDSNVLCGVCGMTNEGHITMLYVHPQYLRRGIGKKLLERVRIYARMQLKLMQVSVNAMPAYTAEYFMHVGFKSAYQGGFCNGQGDMYVPMTAKSIYQVEYTPRHIADKTFIAISVGFTCLVFVSGVIYAVCAGLTP | failed
MATITRTDRLILVPLTVELEDEAHQIYSDSRIWEHRPQARHTNVRVTRDIIKRTNESWGKKDLGPWGVYLRDRPSEFVGVGGVELIDGKVWDLKYRLRPDLWGNGYATEISNAATLATKRIDDSLPLTARVTTNHPASFRILEKLGLTPVWEGRRVGTEDDPNEPDVRIYSDRPLSDEILEMLKQRP | failed
ISRRNQDMLLSVLDLEKMTVDDIMVPRSEIIGIDINDDWKSILRQLSHSPHGRIVLYRDSLDDAISMLRVREAWRLMSEKKEFTKETMLRAADEIYFVPEGTPLSTQLVKFQRNKKKVGLVVNEYGDIQGLVTVEDILEEIVGDFTTSMS | not failed
MDFDYTIKALKTKKKLDAKPNTHTDFVYTTKALRSRKKLDTKPNIHTDFGYAIKAWRSKKKLDIVLESNMTRYMCMIEYKN | failed
